Measurements published in US20210130481A1 (INSERM INSTITUT NATIONAL DE LA SANTE ET DE LA RECHERCHE …, published 2021).
Where a chain is given by its changes, count along the chain named.

B1: mouse IgG2a anti human FSHR antibody 3 (VH CDR1 of SEQ ID NO 3, VH CDR2 of SEQ ID NO 8) (antibody, V domains shown)
VH: QVQLQQSGAELMKPGASVKISCKATGYTFSKQWLLWVKQRPGHGLEWIGEIFPRNGNTNYNEKFKGKATFTADTSSSTAYMQLSSLTSEDSAVYYCARGPTASGYAMDYWGQGTSVTVSS
VL: DVLMTQTPLSLPVSLGDQASISCRSSQSIVHRNGNTYLEWYLQKPGQSPKLLIYKVSNRFSGVPDRFSGSGSGTDFTLKIIRVEAEDLGVYYCFQGSHVPFTFGSGTKLEIK
notes: Mouse IgG2a heavy constant domains and mouse C kappa; also called sample 3; mouse IgG2 FSHR323 variant
B2: mouse IgG2a anti human FSHR antibody 1 (VH CDR1 of SEQ ID NO 1, VH CDR2 of SEQ ID NO 6) (antibody, V domains shown)
VH: B1 VH with K31Q, Q32F, W33Y, L34V, L35G, N55T
VL: B1 VL
notes: VH was cloned in frame with mouse IgG2a heavy constant domains and the V kappa with mouse C kappa; also called sample 1; mouse IgG2 FSHR323 variant
B3: mouse IgG2a anti human FSHR antibody 2 (VH CDR1 of SEQ ID NO 2, VH CDR2 of SEQ ID NO 7) (antibody, V domains shown)
VH: B1 VH with K31R, L34V, L35I, F52L
VL: B1 VL
notes: Mouse IgG2a heavy constant domains and mouse C kappa; also called sample 2; mouse IgG2 FSHR323 variant
B4: mouse IgG2a anti human FSHR antibody 4 (VH CDR1 of SEQ ID NO 4, VH CDR2 of SEQ ID NO 9) (antibody, V domains shown)
VH: B1 VH with K31R, Q32S, L34I, F52Y, R54Q, G56Q
VL: B1 VL
notes: Mouse IgG2a heavy constant domains and mouse C kappa; also called sample 4; mouse IgG2 FSHR323 variant
B5: mouse IgG2a anti human FSHR antibody 5 (VH CDR1 of SEQ ID NO 5, VH CDR2 of SEQ ID NO 10) (antibody, V domains shown)
VH: B1 VH with Q32Y, L34T, L35Q, F52Y
VL: B1 VL
notes: Mouse IgG2a heavy constant domains and mouse C kappa; also called sample 5; mouse IgG2 FSHR323 variant

Columns and labels:
[1] = target: T1, human follicle-stimulating hormone receptor (FSHR) (human, UniProt P23945 18-695); test: FACS on huFSHR L-cells, 4-fold serial dilutions, goat anti-mouse IgG-APC detection
T1 construct: whole, on cells; also called huFSHR; hFSHR
T1 sequence (looked up): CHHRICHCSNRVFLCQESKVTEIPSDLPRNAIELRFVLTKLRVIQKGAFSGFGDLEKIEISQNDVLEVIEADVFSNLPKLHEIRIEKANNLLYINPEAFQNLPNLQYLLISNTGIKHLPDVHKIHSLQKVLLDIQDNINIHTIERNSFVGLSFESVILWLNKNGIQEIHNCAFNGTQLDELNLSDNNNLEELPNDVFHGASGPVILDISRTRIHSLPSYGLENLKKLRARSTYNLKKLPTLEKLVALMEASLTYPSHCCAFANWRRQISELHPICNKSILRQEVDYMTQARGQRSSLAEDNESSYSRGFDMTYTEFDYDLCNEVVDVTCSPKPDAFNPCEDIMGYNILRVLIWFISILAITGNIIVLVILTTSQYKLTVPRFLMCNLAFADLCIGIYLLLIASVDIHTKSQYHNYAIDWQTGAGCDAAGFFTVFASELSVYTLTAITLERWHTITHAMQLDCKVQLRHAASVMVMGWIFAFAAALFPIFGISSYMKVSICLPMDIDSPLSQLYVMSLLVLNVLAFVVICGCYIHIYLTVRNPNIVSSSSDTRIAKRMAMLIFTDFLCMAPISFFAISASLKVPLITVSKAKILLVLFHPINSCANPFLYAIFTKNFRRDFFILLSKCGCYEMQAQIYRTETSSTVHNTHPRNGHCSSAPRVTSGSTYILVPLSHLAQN
Experimental: (§1) In order to characterize and to check whether the IgGs anti human FSHR retain specificity for huFSHR and whether they bind to this receptor with higher affinity than known antibody, a binding FACS experiment using different IgGs (MABs) concentrations and huFSHR-L-cell and WT L-cells was performed. These cells were QCed for huFSHR expression.
(§2) The HuFSHR L-cells were prepared as previously described [Vannier et al 1996 [15]. Briefly, mouse L cells were co-transfected, using the calcium phosphate precipitate method, with the plasmid encoding the hFSHR (pSG5-hFSHR) and with the plasmid pSV-Neo, a vector which confers resistance to the antibiotic G 418. Neomycin-resistant cells were selected in DMEM supplemented with 10% fetal calf serum and G 418 (geneticin, SIGMA-ALDRICH®) (1 mg/mL). […] The transfected cells were maintained in medium containing G 418 (200 ig/mL) for further studies. The samples were 4-fold serial dilution of monoclonal antibodies and buffer: FACS buffer (1×PBS containing 0.4 g/l human albumin, pH 7.4).
(§3) 100 μl/well of goat anti-mouse IgG conjugated to APC (GAM-APC) (BD™ Bioscience, 1:500 dilution) was added to the cells and incubated for 30 min at 4° C., gently shaking

[2] = target: T1, human follicle-stimulating hormone …; test: immunofluorescence microscopy on fixed FSHR-L-cells
Experimental: FSHR-L-cells and wild type L-cells were cultured at 37° C. on LabTeck 8-wells (10,000 cells/well) in DMEM containing 10% horse serum, 1 mM glutamine, 1 mM pyruvate in presence of 5% CO₂. When reached 70% confluence, the cells were washed with PBS (three times) and fixed with 4% paraformaldehyde in PBS (15 min at room temperature (RT)). The free aldehyde groups were quenched with 100 mM NH₄Cl in PBS for 15 min at RT (i.e. 20° C.). To block the nonspecific binding of antibodies the cells were incubated 1 hour at RT (i.e. 20° C.) with PBS (pH=7.4) containing 2% goat serum (blocking buffer). FSHR was detected by incubating cells with serial dilutions of the monoclonal primary antibodies 1, 2, 3, 4, and 5 (3 μg/ml−1 μg/ml—0.3 μg/ml−0.1 μg/ml, 0.03 μg/ml, and 0.01 μg/ml of blocking buffer) overnight at 4° C. and with goat anti-mouse IgG-Alexa 555 (Invitrogen #A21137; dilution 1:1000 in blocking buffer) for 1 hour at room temperature. The known FSHR323 antibody (INSERM-Transfert, Paris) was used as a positive IgG2a control (3 μg/ml) as previously described in Radu et al. 2010 [9]. The cell nuclei were detected by incubating cells for 10 min with DAPI (SIGMA-ALDRICH®#32670; dilution 1:1000 in PBS). The slides were mounted in Dako fluorescent mounting medium containing 15 mM sodium azide and examined with an Olympus microscope.

[3] = target: T1, human follicle-stimulating hormone …; test: FACS on huFSHR L-cells; this end is tied to antibody 1 by Table 2 (1.582/0.2112)
Experimental: as §1, §2, §3

[4] = target: T1, human follicle-stimulating hormone …; test: FACS on huFSHR L-cells; this end is tied to antibody 2 by Table 2 (1.582/0.08678)
Experimental: as §1, §2, §3

[5] = target: T1, human follicle-stimulating hormone …; test: peroxidase immunohistochemistry on paraffin sections of human testis; this end is tied to antibody 4 by the example in the sentence (0.2 against 5 µg/ml)
Experimental: Immunohistochemistry: Serial 3-μm-thick sections of human testis tissue (n=30 sections) were cut, attached to SuperFrost slides, deparaffinized with xylene, […] gradually in ethanol and washed with running tap water for 60 min. Access to tissue antigen sites for antibody attachment was enhanced by incubating slides at 90° C. for 40 min with 10 mM citrate buffer, pH 6. After cooling at room temperature (RT) for 20 min, and after each subsequent step, slides were rinsed with PBS. To block endogenous peroxidase activity, the sections were incubated with 6% hydrogen peroxide (15 min at RT, i.e. 20° C.). Sodium borohydride (10 mg/ml PBS) was used to quench free aldehyde groups (15 min, RT i.e. 20° C.). Non-specific binding of antibodies was blocked by incubating slides with 2% goat serum in Phosphate Buffer Saline (PBS) (blocking buffer) at 20° C. (RT) for 2 h. The slides were incubated with serial dilutions of the monoclonal primary antibodies 4, 2, 3 (5 μg/ml−1 μg/ml−0.2 μg/ml−0.04 μg/ml of blocking buffer) in blocking buffer overnight at 4° C. The known FSHR323 antibody (INSERM-Transfert, Paris) was used as a positive IgG2a control. […] The biotinylated goat anti-mouse IgG (Fc-specific) antibody (dilution 1:200), used as secondary antibody, was detected by using streptavidin coupled to horseradish peroxidase (dilution 1:500). […]

EC50 [1] [nM]	fold lower labelling concentration than the optimal concentration of FSHR323 [2] [fold]	fold improvement of EC50 against the known antibody [3] [fold]	fold improvement of EC50 against the known antibody [4] [fold]	fold higher affinity than FSHR323 (by optimal IHC dilution) [5] [fold]	Binder
0.0893	33	–	–	–	B1
0.211	33	7.5	–	–	B2
0.0868	33	–	18.2	–	B3
0.098	33	–	–	25	B4
0.101	33	–	–	–	B5
